Measurements: article PMC11095456

Columns and labels:
[1] = target: EVI1 MAPPIT bait, wild type; experiment: MAPPIT; settings: HEK293T cells; +Epo; cotransfected with EVI1; parent: est. 29; read off a plot; scale: % of maximum induction
[2] = target: CTBP2 MAPPIT prey, wild type (UniProt P56545); experiment: MAPPIT; settings: HEK293T cells; +Epo; cotransfected with CTBP2; parent: est. 32; read off a plot; scale: % of maximum induction

Substance	response [1]	response [2]
CTBP2 MAPPIT prey, wild type (from UniProt P56545) V72R	11	
EVI1 MAPPIT bait, wild type PFDLT>PFAST		30
EVI1 MAPPIT bait, wild type PLDLS SWAP		5
CTBP2 MAPPIT prey, wild type (from UniProt P56545) A58E	29	
CTBP2 MAPPIT prey, wild type (from UniProt P56545) A58E; V72R	10	
EVI1 MAPPIT bait, wild type PFDLT SWAP		3
EVI1 MAPPIT bait, wild type PLDLS>PLASS		3
